Test [1] deals with T1, human IL-2 (recombinant IL-2, Humanzyme) (human, UniProt P60568 21-153).
T1 construct: It may include the signal peptide; also called hIL-2; interleukin-2
As to the kind of experiment: SPR as in Example 1 (value as in Table 3). How it is done: (§1) Experiments were performed at 25° C. using a 30 μL/minute flow rate in 0.01 M HEPES pH 7.4, 0.15 M NaCl and 0.005% v/v surfactant P20 (HBS-P) buffer. After each cycle, the chip surface was regenerated with 3 M MgCl₂ and new antibody captured. […] Data were analyzed using the Biacore T200 Evaluation software, the signal from the adjacent control flow cell with only the capture antibody immobilized was background subtracted along with buffer only injections for each antibody. A 1:1 Langmuir binding model was used to fit all binding curves.

For test [2], the target named is T2, recombinant cynomolgus monkey (Macaca fascicularis) IL-2 (cynomolgus monkey (Macaca fascicularis), UniProt Q29615 21-154).
T2 construct: also called cyno IL-2; cynomolgus monkey IL-2
T2 sequence (Q29615 21-154 limits assumed): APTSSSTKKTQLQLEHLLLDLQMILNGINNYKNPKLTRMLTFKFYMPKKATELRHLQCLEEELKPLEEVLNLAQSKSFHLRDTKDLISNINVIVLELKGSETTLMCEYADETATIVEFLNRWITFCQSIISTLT
As to the kind of experiment: SPR, IgG captured, cyno IL-2 1-100 nM; 1:1 Langmuir fit or steady-state affinity. How it is done:
as §1
(§2) A 1:1 Langmuir binding model was used to fit binding curves or the steady-state affinity constant calculated from a concentration-response curve.
Background: In SPR one partner is held on a chip, and binding of the other changes the refractive index at the surface.

The target in test [3] is T1, human IL-2 (recombinant IL-2, Humanzyme). Put plainly: SPR (Biacore T200), IgG captured by anti-human IgG, IL-2 injected, 25 C, 1:1 Langmuir fit. Here is the method:
as §1

The target is the same in test [4]. As to the kind of experiment: SPR as in Example 1 (IgG captured, IL-2 injected). Here is the method:
as §1

Test [5] has as its target T2, recombinant cynomolgus monkey (Macaca …). Put plainly: SPR, IgG captured, cyno IL-2 1-100 nM; concentration-response insufficient to calculate the affinity. How it is done:
as §1, §2

The target in test [6] is T1, human IL-2 (recombinant IL-2, Humanzyme). Put plainly: method not stated in the sentence (presumably SPR as in Example 1).
Test [7] has the same target. Put plainly: SPR as in Example 1 (value as in Table 4). How it is done: as §1
The target is the same in test [8]. Put plainly: SPR as in Example 1; reference is parental F5.1.11. Here is the method: as §1
The target in another test is T3, d1C7/IL-2 complex (human, UniProt P60568 21-153).
T3 construct: also called clone d1C7/IL-2 complex
T3 sequence (P60568 21-153 limits assumed, one chain of several): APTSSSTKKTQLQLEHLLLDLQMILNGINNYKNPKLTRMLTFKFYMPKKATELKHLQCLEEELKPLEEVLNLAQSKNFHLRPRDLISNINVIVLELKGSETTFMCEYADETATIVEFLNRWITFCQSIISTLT
As to the kind of experiment: SPR (Biacore T200), complex injected over biotinylated receptor on a streptavidin chip. How it is done:
Experiments were performed at 25° C. using a 10 μL/minute flow rate in 10 mM HEPES (pH 7.4), 150 mM NaCl and 0.005% v/v Surfactant P20 buffer. […] Data was background subtracted using the adjacent control flow cell and buffer only injections.

A further test has as its target IL-2/F5.1.11 Fab complex (human, UniProt P60568 21-153). As to the kind of experiment: SPR (Biacore T200), equilibrium analysis, 1-500 nM IL-2 pre-complexed with excess Fab over biotinylated IL-2Rα. How it is done:
Experiments were performed at 25° C. using a 10 μL/minute flow rate in 10 mM HEPES (pH7.4), 150 mM NaCl and 0.005% v/v Surfactant P20 buffer. […] Data was background subtracted using the adjacent control flow cell and buffer only injections. The affinity of the interaction was calculated from concentration-response relationship at equilibrium.

T1 sequence (P60568 21-153 limits assumed): as the sequence (P60568 21-153 limits assumed, one chain of several) above
IL-2/F5.1.11 Fab complex, sequence (P60568 21-153 limits assumed, one chain of several): as above

B1: 16C3 (antibody, V domains shown)
VH: QVQLVQSGGGVVQPGRSLRLSCAASGFTFSNYAMNWVRQAPGKGLEWVTLISYDGSQKYYADSVKGRFTTSRDNSKNTLYLQMNSLRAEDTAVYYCARDSTTLGAFDVWGQGTMVTVSS
VL: SYELTQPPSLSVSPGQTATISCSGDAFPRKFAYWYQQKSGQAPVLVIYEDTRRPSGIPERFSGSSSGTMATLTISGAQVEDEADYFCYSTDTTGTHRVFGGGTKLTVL
Consider B1, for which the Kd (usually a measure of binding affinity in units of concentration) in test [1] was determined as 0.637 nM. Further, the Kd in test [2] amounted to 0.516 nM. Also, in test [3], the dissociation constant (Kd) amounted to 0.637 nM; the off-rate (koff) (usually the first-order rate constant of dissociation) was found to be 0.000619 s⁻¹; the kon (in general, a measure of how fast the partners come together) was determined as 989000 M⁻¹ s⁻¹.

B2: F5.1.11 (antibody, V domains shown)
VH: QLQLQESGPGLVKPSQTLSLTCTVSGGSISSGGYYWSWIRQHPGKGLEWIGYIYYSGSTYYNPSLKSRVTISVDTSKNQFSLKLSSVTAADTAVYYCARTPTVTGDWFDPWGRGTLVTVSS
VL: NFMLTQPHSVSESPGKTVTISCTRSSGSIASNYVQWYQQRPGSSPTTVIYEDNQRPSGVPDRFSGSIDSSSNSASLTISGLKTEDEADYYCQSYDSSNVVFGGGTKLTVL
As to B2, the Kd in [1] came to 3.12 nM; in test [4] it was 1.88 nM; in test [3], 3.12 nM. Further, the values for the dissociation rate constant (koff) in [4] and in [3] were 0.00711 s⁻¹ and 0.00688 s⁻¹, respectively. Besides, the association rate constant (kon) was found to be 3.78e+06 M⁻¹ s⁻¹ in [4] and 2.21e+06 M⁻¹ s⁻¹ in test [3]. Further, the binding result in [5] was “binds”.

B3: F5.1.11.04 (antibody, V domains shown)
VH: QLQLQESGPGLVKPSQTLSLTCTVSGGSISSGGYYWSWIRQHPGKGLEWIGYIYYSGSNYWNPSLKSRVTISVDTSKNQFSLKLSSVTAADTAVYYCARTPTVTGDWFDPWGRGTLVTVSS
VL: NFMLTQPHSVSESPGKTVTISCTRSSGSIASNYVQWYQQRPGSSPTTVIYEDNQRPSGVPDRFSGSIDSSSNSASLTISGLKTEDEADYYCQSYDTRDVVFGGGTKLTVL
Turning to B3, in test [4], the Kd turned out to be 0.624 nM, the koff came out at 0.000458 s⁻¹ and the kon was found to be 734000 M⁻¹ s⁻¹.

B4: F5.1.11.08 (antibody, V domains shown)
VH: QLQLQESGPGLVKPSQTLSLTCTVSGGSISSGGYYWSWIRQHPGKGLEWIGYIYKSGSNYWNPSLKSRVTISVDTSKNQFSLKLSSVTAADTAVYYCARTPTVTGDWFDPWGRGTLVTVSS
VL: NFMLTQPHSVSESPGKTVTISCTRSSGSIASNYVQWYQQRPGSSPTTVIYEDNQRPSGVPDRFSGSIDSSSNSASLTISGLKTEDEADYYCQTYDSIDVYFGGGTKLTVL
On to B4, for which, in [4], the Kd turned out to be 0.205 nM, the koff was 0.000453 s⁻¹ and the on-rate (kon) was determined as 2.21e+06 M⁻¹ s⁻¹.

B5: F4.7.6 (antibody, V domains shown)
VH: EVQLQESGPGLVKPSQTLSLTCTVSGGSISSGGYYWSWIRQHPGKGLEWIGYIYYSGSTYYNPSLKSRVTISVDTSKNQFSLKLSSVTAADTAVYYCARTPTVTGDWFDPWGQGTLVTVSS
VL: NFMLTQPHSVSESPGKTVTISCTRSSGSIASNYVQWYQQRPGSSPTTVIYEDNQRPSGVPDRFSGSIDSSSNSASLTISGLKTEDEADYYCQSYDSSTVVFGGGTKLTVL
For the molecule B5, in [3], the equilibrium dissociation constant (Kd) was 3.03 nM, the koff turned out to be 0.00738 s⁻¹ and the kon was found to be 2.44e+06 M⁻¹ s⁻¹.

B6: F4.7.062 (antibody, V domains shown)
VH: QVQLQESGPGLVKPSQTLSLTCTVSGGSISSGGYYWSWIRQHPGKGLEWIGYIYYSGSTYYNPSLKSRVTISVDTSKNQFSLKLSSVTAADTAVYYCARTPTVTGDWFDPWGQGTLVTVSS
VL: NFMLTQPHSVSESPGKTVTISCTRSSGSIASNYVQWYQQRPGSSPTTVIYEDNQRPSGVPDRFSGSIDSSSNSASLTISGLKTEDEADYYCQSYDSSNVVFGGGTKLTVL
On to B6, for which, in [3], the dissociation constant Kd was 1.54 nM, the koff turned out to be 0.0058 s⁻¹ and the kon was 3.77e+06 M⁻¹ s⁻¹.

B7: F5.1.9.5 (antibody, V domains shown)
VH: EVQLVESGPGLVKPSETLSLTCAVSGYSISSGYYWGWIRQPPGKGLEWIGLSYHTRSTYYDPSLKSRVTISVDTSKNQFSLKLSSVTAADTAVYYCAREAYSDRAFDIWGQGTMVTVSS
VL: NFMLTQPHSVSESPGKTITISCTRSSGSIASDYVQWYQQRPGSSPSTVIYADNQRPSEVPDRFSGSIDSSSNSASLTISGLMTEDEADYYCQSYDSNIVIFGGGTKLTVL
Consider B7, for which, in test [6], the dissociation constant (Kd) is 0.663 nM, the off-rate constant (koff) was 0.000818 s⁻¹ and the kon stood at 1.23e+06 M⁻¹ s⁻¹.

B8: F5.1.11.02 (antibody, V domains shown)
VH: QLQLQESGPGLVKPSQTLSLTCTVSGGSISSGGYYWSWIRQHPGKGLEWIGYIYKSGSAYYSPSLKSRVTISVDTSKNQFSLKLSSVTAADTAVYYCARTPTVTGDWFDPWGRGTLVTVSS
VL: NFMLTQPHSVSESPGKTVTISCTRSSGSIASNYVQWYQQRPGSSPTTVIYEDNQRPSGVPDRFSGSIDSSSNSASLTISGLKTEDEADYYCQTYDSIDVYFGGGTKLTVL
notes: also called F5111.2; 5.1.11.2
On to B8, for which the Kd in test [7] was determined as 0.114 nM. Moreover, in test [8], the “fold increase of apparent binding affinity over parental F5.1.11” value worked out at 16 fold. Further, in test [4], the Kd is 0.114 nM, the koff was 0.000574 s⁻¹ and the association rate constant (kon) was determined as 5.05e+06 M⁻¹ s⁻¹. The Kd in [2] is approximately 211 nM.

B9: d1C7 (antibody, V domains shown)
VH: QVQLVQSGAEVKKPGSSVKVSCKASGGTFSSYAISWVRQAPGQGLEWMGGIIPIFGTANYAQKFQGRVTITADESTSTAYMELSSLRSEDTAVYYCARVDRYYNWNYFLGSFDYWGQGTLVTVSS
VL: SYVLTQPPSVSVAPGKTARITCGGNNIRSKSVHWYQQKPGQAPVVVIYYDSDRPSGIPERISGSNSGNTATLTISRVEAGDEADYFCQVWDSSSDHHVFGGGTKLTVL
notes: Only the variable domains are tied to the clone; also called clone d1C7
In the case of B9, the Kd in test [1] was determined as 0.536 nM. The Kd in test [2] is not below 108 nM. For the same molecule, in [3], the equilibrium dissociation constant (Kd) was determined as 0.536 nM, the off-rate (koff) was found to be 0.000607 s⁻¹ and the kon was determined as 1.13e+06 M⁻¹ s⁻¹.

B10: recombinant IL-2Rβ (receptor, UniProt P14784 27-239, looked up)
chain: AVNGTSQFTCFYNSRANISCVWSQDGALQDTSCQVHAWPDRRRWNQTCELLPVSQASWACNLILGAPDSQKLTTVDIVTLRVLCREGVRWRVMAIQDFKPFENLRLMAPISLQVVHVETHRCNISWEISQASHYFERHLEFEARTLSPGHTWEEAPLLTLKQKQEWICLETLTPDTQYEFQVRVKPLQGEFTTWSPWSQPLAFRTKPAALGKD
modifications: biotin labeled
notes: also called CD122; IL2Rb
In the case of B10, the binding result with d1C7/IL-2 complex is “no binding”.

B11: recombinant IL-2Rα (receptor, UniProt P01589 22-213, looked up)
chain: ELCDDDPPEIPHATFKAMAYKEGTMLNCECKRGFRRIKSGSLYMLCTGNSSHSSWDNQCQCTSSATRNTTKQVTPQPEEQKERKTTEMQSPMQPVDQASLPGHCREPPPWENEATERIYHFVVGQMVYYQCVQGYRALHRGPAESVCKMTHGKTRWTQPQLICTGEMETSQFPGEEKPQASPEGRPESETSC
modifications: biotin labeled
notes: also called IL-2α; CD25
B11: the dissociation constant Kd in the test with IL-2/F5.1.11 Fab complex is 70.1 nM.

B12: F4.7.8 (antibody, V domains shown)
VH: not shown
VL: AIQLTQSPSSLSASVGDRVTITCQASQDIFNLLNWYRQKPGKAPDLLVYRASNLETGVPSRFSGSGSGTDFTFTISSLQPEDVGTYYCQQSANLPLTFGGGTKVEIK
notes: Only the variable domains are tied to the clone
As to B12, the Kd in test [1] was 13.4 nM; in [2] it was 92.4 nM; in [3], 13.4 nM. Further, the koff in test [3] stood at 0.0031 s⁻¹. In addition, the kon in test [3] was 231000 M⁻¹ s⁻¹.

Source of the values: patent US20230340106A1 (published 2023).
